Assay results published in US20220153854A1 (Ablynx, published 2022).
Where a chain is given by its changes, count along the chain named.

Assays:
rhesus IL-13 [1] = target: T1, rhesus IL-13 (rhesus monkey, UniProt Q864V6 19-132, limits assumed); assay: cell-based or functional assay
cyno IL-13 [2] = target: T2, cyno IL-13 (cynomolgus monkey, UniProt Q0PW92 21-132); assay: cell-based or functional assay
human IL-13 [3] = target: T3, human IL-13 (human, UniProt P35225 35-146, limits assumed); assay: cell-based or functional assay
T3 sequence (P35225 35-146 limits assumed): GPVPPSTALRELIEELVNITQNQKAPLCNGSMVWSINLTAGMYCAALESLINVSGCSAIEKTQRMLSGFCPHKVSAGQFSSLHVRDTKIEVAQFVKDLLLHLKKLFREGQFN

cyno OX40L = target: T4, cyno OX40L (cynomolgus monkey, UniProt G7NVH7 51-183); assay: Gyrolab in-solution affinity, 24 h incubation; 95% CI 101-156 pM
T4 construct: also called cyOX40L; cynomolgus monkey OX40L
T4 sequence: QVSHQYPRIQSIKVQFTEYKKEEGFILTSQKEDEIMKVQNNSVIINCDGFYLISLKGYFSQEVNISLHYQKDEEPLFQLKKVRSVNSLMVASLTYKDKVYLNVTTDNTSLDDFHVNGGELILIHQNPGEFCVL
Description: (§1) Under receptor-controlled measurements a serial dilution of OX40L (ranging from 1.3 μM-0.031 μM), IL-13 (ranging from 0.1 μM-0.25 fM), or serum albumin (ranging from 100 μM-3.2 μM) and a fixed amount of ISVD construct F027100187 (5 nM in case of OX40L, […] in case of IL-13 and 30 nM in case of HSA and cyno SA) were mixed to allow interaction and incubated for either 24 or 48 hours (in case of OX40L and IL-13) or 2 hours (in case of serum albumin) to reach equilibrium.
(§2) Biotinylated human OX40L/IL-13/serum albumin was captured in the microstructures of a Gyrolab Bioaffy 1000 CD, which contains columns of beads and was used as a molecular probe to capture free F027100187 from the equilibrated solution. The mixture of OX40L/IL13/serum albumin and F027100187 (containing free OX40UIL-13/serum albumin, free F027100187 and OX40L/IL13/serum albumin—F027100187 complexes) was allowed to flow through the beads, and a small percentage of free F027100187 was captured, which is proportional to the free ISVD construct concentration. A fluorescently labeled anti-ISVD antibody, ABH0086-Alexa647, was then injected to label any captured F027100187 and after rinsing away excess of fluorescent probe, the change in fluorescence was determined. Fitting of the dilution series was done using Gyrolab Analysis software, where KD- and receptor-controlled curves were analyzed to determine the KD value.

human CD30L = target: T5, human CD30L (human, UniProt P32971 63-234, limits assumed); assay: SPR (ProteOn XPR36), cytokine immobilised by amine coupling
T5 construct: also called hCD30L
T5 sequence (looked up): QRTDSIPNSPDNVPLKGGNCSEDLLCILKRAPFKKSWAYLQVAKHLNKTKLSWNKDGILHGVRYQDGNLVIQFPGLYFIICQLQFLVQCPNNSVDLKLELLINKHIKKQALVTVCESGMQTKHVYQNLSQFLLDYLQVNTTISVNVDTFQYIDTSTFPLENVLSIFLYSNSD
Description: (§3) Absence of binding to OX40L and IL-13 related human cytokines was assessed via SPR (Proteon XPR36). As IL-13 related cytokine, IL-4 was assessed. As OX40L related targets, human TRAIL, CD30L, CD40L and RANKL were assessed.
(§4) To this end, the cytokines were immobilized on a ProteOn GLC sensor chip at 25 μg/mL for 600 s using amine coupling, with 80 seconds injection of EDC/NHS for activation and a 150-seconds injection of 1 M Ethanolamine HCl for deactivation (ProteOn Amine Coupling Kit. cat. 176-2410). Flow rate during activation and deactivation was set to 30 μl/min, and during ligand injection to 25 μl/min. The pH of the 10 mM acetate immobilization buffer was 6.0 for all cytokines, except for RANKL where the pH was 5.0.
(§5) Next, 1 μM of F027100187 was injected for 2 minutes and allowed to dissociate for 600 s at a flow rate of 45 μL/min. As running buffer PBS (pH7.4)+0.005% Tween 20 was used. As positive controls, 100 nM α-hIL-4, α-hTRAIL, α-hCD30L, α-hCD40L Ab and α-hRANKL VHH (Nanobody®, Nb) were injected. Interaction between F027100187 and the positive controls with the immobilized targets was measured by detection of increases in refractory index which occurs as a result of mass changes on the chip upon binding.

human IL-4 = target: T6, human IL-4 (human, UniProt P05112 25-153); assay: as above
T6 construct: also called hIL-4
T6 sequence (looked up): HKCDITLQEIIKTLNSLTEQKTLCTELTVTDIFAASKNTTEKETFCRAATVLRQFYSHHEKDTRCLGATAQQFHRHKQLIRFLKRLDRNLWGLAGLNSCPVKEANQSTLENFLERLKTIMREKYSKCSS
Description: as §3, §4, §5

cyno IL-13 [4] = target: T2, cyno IL-13; assay: Gyrolab in-solution affinity, 48 h incubation; 95% CI 7.0-9.3 pM
Description: as §1, §2

human IL-13 [5] = target: T3, human IL-13; assay: Gyrolab in-solution affinity, 48 h incubation; 95% CI 3.8-11.5 pM
Description: as §1, §2

rhesus IL-13 [6] = target: T1, rhesus IL-13; assay: Gyrolab in-solution affinity, 48 h incubation; 95% CI 9.0-49.5 pM
Description: as §1, §2

rhesus IL-13 [7] = target: T1, rhesus IL-13; assay: Gyrolab in-solution affinity, 48 h incubation; 95% CI 6.3-49.5 pM
Description: as §1, §2

[8] = target: T7, membrane bound human OX40L on CHO-KI cells (human, UniProt P23510 1-183); assay: cell-based or functional assay
T7 sequence (looked up): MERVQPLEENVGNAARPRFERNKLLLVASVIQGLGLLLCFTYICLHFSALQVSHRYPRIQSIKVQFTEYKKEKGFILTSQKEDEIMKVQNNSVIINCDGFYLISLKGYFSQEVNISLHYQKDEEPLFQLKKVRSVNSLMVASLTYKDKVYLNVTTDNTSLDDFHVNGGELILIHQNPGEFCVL

[9] = target: T8, membrane bound cyno OX40L on CHO-KI cells (cynomolgus monkey, UniProt G7NVH7 1-183); assay: cell-based or functional assay
T8 sequence: T7 sequence (looked up) with R55Q, K73E

T1 sequence (Q864V6 19-132 limits assumed): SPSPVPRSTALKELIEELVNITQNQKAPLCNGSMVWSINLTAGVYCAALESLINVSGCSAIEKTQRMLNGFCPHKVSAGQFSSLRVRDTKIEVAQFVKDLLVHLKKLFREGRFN
T2 sequence (Q0PW92 entry or part of it): as the sequence (P35225 35-146 limits assumed) above, with G1S, R10K, M42V, S67N, H83R, L100V counted along it

eotaxin release assay (IC50, pM) (rhesus IL-13 [1]): 858 pM
eotaxin release assay (IC50, pM) (cyno IL-13 [2]): 1940 pM
eotaxin release assay (IC50, pM) (human IL-13 [3]): 259 pM
Kd (cyno OX40L): 0.128 nM
binding result (human CD30L): no binding (tested: 1 µM)
binding result (human IL-4): no binding (tested: 1 µM)
Kd (cyno IL-13 [4]): 0.0082 nM
Kd (human IL-13 [5]): 0.0076 nM
Kd (rhesus IL-13 [6]): 0.0293 nM
Kd (rhesus IL-13 [7]): 0.0141 nM
PBMC activity assay IC50 [8]: 1.9 nM
PBMC activity assay IC50 [9]: 14 nM
B1: ISVD construct F027100187 (other)
chain: DVQLVESGGGVVQPGGSLRLSCAASRSIGRYDRMGWYRHRPGEPRELVATITGGSSINYGDSVKGRFTISIDNSKNTVYLQMNSLRPEDTALYYCNFNKYQISRDTWGQGTLVTVSSGGGGSGGGSEVQLVESGGGVVQPGGSLRLSCAASGRTFSSYRMGWFRQAPGKEREFVAALSGDGYSTYTANSVKGRFTISRDNSKNTVYLQMNSLRPEDTALYYCAAKLQYVSGWSYDYPYWGQGTLVTVSSGGGGSGGGSEVQLVESGGGVVQPGGSLRLSCAASGFTFRSFGMSWVRQAPGKGPEWVSSISGSGSDTLYADSVKGRFTISRDNSKNTLYLQMNSLRPEDTALYYCTIGGSLSRSSQGTLVTVSSGGGGSGGGSEVQLVESGGGVVQPGGSLRLSCAASGFTFNNYAMKWVRQAPGKGLEWVSSITTGGGSTDYADSVKGRFTISRDNSKNTLYLQMNSLRPEDTALYYCANVPFGYYSEHFSGLSFDYRGQGTLVTVSSA
notes: Tetravalent, trispecific single-chain construct of four VHH (ISVD) domains: one against OX40L, two against IL-13, one against serum albumin; also called F0271000187; F27100187
